Literature values in paper PMC10287730.

Biological target: TLR4 (Homo sapiens) (UniProt O00206)
Sequence (O00206 24-839): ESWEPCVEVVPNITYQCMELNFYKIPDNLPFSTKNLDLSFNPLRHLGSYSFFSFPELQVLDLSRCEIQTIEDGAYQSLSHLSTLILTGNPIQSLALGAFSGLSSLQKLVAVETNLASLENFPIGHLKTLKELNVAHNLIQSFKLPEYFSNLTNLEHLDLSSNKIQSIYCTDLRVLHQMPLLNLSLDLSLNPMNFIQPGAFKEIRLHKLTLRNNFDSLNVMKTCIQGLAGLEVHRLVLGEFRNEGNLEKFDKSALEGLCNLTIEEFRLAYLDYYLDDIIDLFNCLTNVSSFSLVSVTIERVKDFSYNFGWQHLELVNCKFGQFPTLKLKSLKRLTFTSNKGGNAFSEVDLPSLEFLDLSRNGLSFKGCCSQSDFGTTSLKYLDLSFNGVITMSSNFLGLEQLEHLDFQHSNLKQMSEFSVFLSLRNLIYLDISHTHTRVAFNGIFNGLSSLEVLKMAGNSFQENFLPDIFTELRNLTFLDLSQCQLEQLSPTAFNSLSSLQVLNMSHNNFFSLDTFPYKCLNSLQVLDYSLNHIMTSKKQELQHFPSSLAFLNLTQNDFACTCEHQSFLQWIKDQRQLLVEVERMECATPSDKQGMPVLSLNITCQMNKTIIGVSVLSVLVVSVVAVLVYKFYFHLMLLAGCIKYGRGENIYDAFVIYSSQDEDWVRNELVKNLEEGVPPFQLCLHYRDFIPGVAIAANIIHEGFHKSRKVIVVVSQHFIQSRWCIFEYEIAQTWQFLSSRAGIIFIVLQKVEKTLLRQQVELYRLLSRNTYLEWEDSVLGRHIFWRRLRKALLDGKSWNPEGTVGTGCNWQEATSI

Chain of Galectin-3 (P17931 2-250): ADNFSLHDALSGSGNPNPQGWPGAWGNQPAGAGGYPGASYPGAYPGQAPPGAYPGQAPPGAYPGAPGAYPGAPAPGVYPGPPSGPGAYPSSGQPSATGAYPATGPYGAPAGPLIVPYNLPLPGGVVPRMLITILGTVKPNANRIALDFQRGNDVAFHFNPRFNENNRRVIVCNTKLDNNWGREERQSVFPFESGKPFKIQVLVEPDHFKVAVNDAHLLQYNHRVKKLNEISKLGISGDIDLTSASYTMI

Kd: 1000 nM
Substance: Galectin-3 (from UniProt P17931)
